Data as given in US20180094059A1 (published 2018).

B1: scTRAIL3-FAVGGIA (protein)
chain: MDWTWRVFCLLAVAPGAHSLDDYKDDDDKEFGGAAAHITGTRGRSNTLSSPNSKNEKALGRKINSWESSRSGHSFLSNLHLRNGELVIHEKGFYYIYSQTYFRFQEEIKENTKNDKQMVQYIYKYTSYPDPILLMKSARNSCWSKDAEYGLYSIYQGGIFELKENDRIFVSVTNEHLIDMDHEASFFGAFLVGGAAAHITGTRGRSNTLSSPNSKNEKALGRKINSWESSRSGHSFLSNLHLRNGELVIHEKGFYYIYSQTYFRFQEEIKENTKNDKQMVQYIYKYTSYPDPILLMKSARNSCWSKDAEYGLYSIYQGGIFELKENDRIFVSVTNEHLIDMDHEASFFGAFLVGGAAAHITGTRGRSNTLSSPNSKNEKALGRKINSWESSRSGHSFLSNLHLRNGELVIHEKGFYYIYSQTYFRFQEEIKENTKNDKQMVQYIYKYTSYPDPILLMKSARNSCWSKDAEYGLYSIYQGGIFELKENDRIFVSVTNEHLIDMDHEASFFGAFLVG
B2: scTRAIL3-FIVGGIA (protein)
chain: MDWTWRVFCLLAVAPGAHSLDDYKDDDDKEFGGAAAHITGTRGRSNTLSSPNSKNEKALGRKINSWESSRSGHSFLSNLHLRNGELVIHEKGFYYIYSQTYFRFQEEIKENTKNDKQMVQYIYKYTSYPDPILLMKSARNSCWSKDAEYGLYSIYQGGIFELKENDRIFVSVTNEHLIDMDHEASFFGAFAVGGAAAHITGTRGRSNTLSSPNSKNEKALGRKINSWESSRSGHSFLSNLHLRNGELVIHEKGFYYIYSQTYFRFQEEIKENTKNDKQMVQYIYKYTSYPDPILLMKSARNSCWSKDAEYGLYSIYQGGIFELKENDRIFVSVTNEHLIDMDHEASFFGAFAVGGAAAHITGTRGRSNTLSSPNSKNEKALGRKINSWESSRSGHSFLSNLHLRNGELVIHEKGFYYIYSQTYFRFQEEIKENTKNDKQMVQYIYKYTSYPDPILLMKSARNSCWSKDAEYGLYSIYQGGIFELKENDRIFVSVTNEHLIDMDHEASFFGAFAVG
B3: scTRAIL3-FIVSGIA (protein)
chain: MDWTWRVFCLLAVAPGAHSLDDYKDDDDKEFGGIAAHITGTRGRSNTLSSPNSKNEKALGRKINSWESSRSGHSFLSNLHLRNGELVIHEKGFYYIYSQTYFRFQEEIKENTKNDKQMVQYIYKYTSYPDPILLMKSARNSCWSKDAEYGLYSIYQGGIFELKENDRIFVSVTNEHLIDMDHEASFFGAFIVGGIAAHITGTRGRSNTLSSPNSKNEKALGRKINSWESSRSGHSFLSNLHLRNGELVIHEKGFYYIYSQTYFRFQEEIKENTKNDKQMVQYIYKYTSYPDPILLMKSARNSCWSKDAEYGLYSIYQGGIFELKENDRIFVSVTNEHLIDMDHEASFFGAFIVGGIAAHITGTRGRSNTLSSPNSKNEKALGRKINSWESSRSGHSFLSNLHLRNGELVIHEKGFYYIYSQTYFRFQEEIKENTKNDKQMVQYIYKYTSYPDPILLMKSARNSCWSKDAEYGLYSIYQGGIFELKENDRIFVSVTNEHLIDMDHEASFFGAFIVG
B4: scTRAIL3-FAVSGAA (protein)
chain: MDWTWRVFCLLAVAPGAHSLDDYKDDDDKEFGGAAAHITGTRGRSNTLSSPNSKNEKALGRKINSWESSRSGHSFLSNLHLRNGELVIHEKGFYYIYSQTYFRFQEEIKENTKNDKQMVQYIYKYTSYPDPILLMKSARNSCWSKDAEYGLYSIYQGGIFELKENDRIFVSVTNEHLIDMDHEASFFGAFAVSGAAAHITGTRGRSNTLSSPNSKNEKALGRKINSWESSRSGHSFLSNLHLRNGELVIHEKGFYYIYSQTYFRFQEEIKENTKNDKQMVQYIYKYTSYPDPILLMKSARNSCWSKDAEYGLYSIYQGGIFELKENDRIFVSVTNEHLIDMDHEASFFGAFAVSGAAAHITGTRGRSNTLSSPNSKNEKALGRKINSWESSRSGHSFLSNLHLRNGELVIHEKGFYYIYSQTYFRFQEEIKENTKNDKQMVQYIYKYTSYPDPILLMKSARNSCWSKDAEYGLYSIYQGGIFELKENDRIFVSVTNEHLIDMDHEASFFGAFAVS
B5: scTRAIL3-FLVSGIA (protein)
chain: MDWTWRVFCLLAVAPGAHSLDDYKDDDDKEFGGIAAHITGTRGRSNTLSSPNSKNEKALGRKINSWESSRSGHSFLSNLHLRNGELVIHEKGFYYIYSQTYFRFQEEIKENTKNDKQMVQYIYKYTSYPDPILLMKSARNSCWSKDAEYGLYSIYQGGIFELKENDRIFVSVTNEHLIDMDHEASFFGAFAVGGIAAHITGTRGRSNTLSSPNSKNEKALGRKINSWESSRSGHSFLSNLHLRNGELVIHEKGFYYIYSQTYFRFQEEIKENTKNDKQMVQYIYKYTSYPDPILLMKSARNSCWSKDAEYGLYSIYQGGIFELKENDRIFVSVTNEHLIDMDHEASFFGAFAVGGIAAHITGTRGRSNTLSSPNSKNEKALGRKINSWESSRSGHSFLSNLHLRNGELVIHEKGFYYIYSQTYFRFQEEIKENTKNDKQMVQYIYKYTSYPDPILLMKSARNSCWSKDAEYGLYSIYQGGIFELKENDRIFVSVTNEHLIDMDHEASFFGAFAVG
B6: Db-Glyco-scTRAIL-95L8 (other)
chain: TSEETISTVQEKQQNISPLVRERGPQRVAAHITGTRGRSNTLSSPNSKNEKALGRKINSWESSRSGHSFLSNLHLRNGELVIHEKGFYYIYSQTYFRFQEEIKENTKNDKQMVQYIYKYTSYPDPILLMKSARNSCWSKDAEYGLYSIYQGGIFELKENDRIFVSVTNEHLIDMDHEASFFGAFLVGGGGSGGGSTSEETISTVQEKQQNISPLVRERGPQRVAAHITGTRGRSNTLSSPNSKNEKALGRKINSWESSRSGHSFLSNLHLRNGELVIHEKGFYYIYSQTYFRFQEEIKENTKNDKQMVQYIYKYTSYPDPILLMKSARNSCWSKDAEYGLYSIYQGGIFELKENDRIFVSVTNEHLIDMDHEASFFGAFLVGGGGSGGGSTSEETISTVQEKQQNISPLVRERGPQRVAAHITGTRGRSNTLSSPNSKNEKALGRKINSWESSRSGHSFLSNLHLRNGELVIHEKGFYYIYSQTYFRFQEEIKENTKNDKQMVQYIYKYTSYPDPILLMKSARNSCWSKDAEYGLYSIYQGGIFELKENDRIFVSVTNEHLIDMDHEASFFGAFLVG
B7: Db-Glyco-scTRAIL3-FAVSGAA (other)
chain: LEASDYKDDDDKGAEVQLVESGGGLVQPGGSLRLSCAASGFSLTNYGVHWVRQAPGKGLEWLGVIWSGGNTDYNTPFTSRFTISRDNSKNTLYLQMNSLRAEDTAVYYCARALTYYDYEFAYWGQGTTVTVSSGGGGSDIQLTQSPSFLSASVGDRVTITCRASQSIGTNIHWYQQKPGKAPKLLIKYASESISGVPSRFSGSGSGTEFTLTISSLQPEDFATYYCQQNNNWPTTFGAGTKLEIKRAAAGNGTSNGTSEFGGAAAHITGTRGRSNTLSSPNSKNEKALGRKINSWESSRSGHSFLSNLHLRNGELVIHEKGFYYIYSQTYFRFQEEIKENTKNDKQMVQYIYKYTSYPDPILLMKSARNSCWSKDAEYGLYSIYQGGIFELKENDRIFVSVTNEHLIDMDHEASFFGAFAVSGAAAHITGTRGRSNTLSSPNSKNEKALGRKINSWESSRSGHSFLSNLHLRNGELVIHEKGFYYIYSQTYFRFQEEIKENTKNDKQMVQYIYKYTSYPDPILLMKSARNSCWSKDAEYGLYSIYQGGIFELKENDRIFVSVTNEHLIDMDHEASFFGAFAVSGAAAHITGTRGRSNTLSSPNSKNEKALGRKINSWESSRSGHSFLSNLHLRNGELVIHEKGFYYIYSQTYFRFQEEIKENTKNDKQMVQYIYKYTSYPDPILLMKSARNSCWSKDAEYGLYSIYQGGIFELKENDRIFVSVTNEHLIDMDHEASFFGAFAVS
modifications: two N-glycosylation sites in the peptide AAAGNGTSNGTSEFGG, shown to be glycosylated
B8: Db-Glyco-scTRAIL3-FAVSGIA (other)
chain: LEASDYKDDDDKGAEVQLVESGGGLVQPGGSLRLSCAASGFSLTNYGVHWVRQAPGKGLEWLGVIWSGGNTDYNTPFTSRFTISRDNSKNTLYLQMNSLRAEDTAVYYCARALTYYDYEFAYWGQGTTVTVSSGGGGSDIQLTQSPSFLSASVGDRVTITCRASQSIGTNIHWYQQKPGKAPKLLIKYASESISGVPSRFSGSGSGTEFTLTISSLQPEDFATYYCQQNNNWPTTFGAGTKLEIKRAAAGNGTSNGTSEFGGIAAHITGTRGRSNTLSSPNSKNEKALGRKINSWESSRSGHSFLSNLHLRNGELVIHEKGFYYIYSQTYFRFQEEIKENTKNDKQMVQYIYKYTSYPDPILLMKSARNSCWSKDAEYGLYSIYQGGIFELKENDRIFVSVTNEHLIDMDHEASFFGAFAVSGIAAHITGTRGRSNTLSSPNSKNEKALGRKINSWESSRSGHSFLSNLHLRNGELVIHEKGFYYIYSQTYFRFQEEIKENTKNDKQMVQYIYKYTSYPDPILLMKSARNSCWSKDAEYGLYSIYQGGIFELKENDRIFVSVTNEHLIDMDHEASFFGAFAVSGIAAHITGTRGRSNTLSSPNSKNEKALGRKINSWESSRSGHSFLSNLHLRNGELVIHEKGFYYIYSQTYFRFQEEIKENTKNDKQMVQYIYKYTSYPDPILLMKSARNSCWSKDAEYGLYSIYQGGIFELKENDRIFVSVTNEHLIDMDHEASFFGAFAVS
modifications: glycosylated connecting peptide
B9: Db8-Glyco-scTRAIL3-FAVSGAA (other)
chain: LEASDYKDDDDKGAEVQLVESGGGLVQPGGSLRLSCAASGFSLTNYGVHWVRQAPGKGLEWLGVIWSGGNTDYNTPFTSRFTISRDNSKNTLYLQMNSLRAEDTAVYYCARALTYYDYEFAYWGQGTTVTVSSGGGGSGGGDIQLTQSPSFLSASVGDRVTITCRASQSIGTNIHWYQQKPGKAPKLLIKYASESISGVPSRFSGSGSGTEFTLTISSLQPEDFATYYCQQNNNWPTTFGAGTKLEIKRAAAGNGTSNGTSEFGGAAAHITGTRGRSNTLSSPNSKNEKALGRKINSWESSRSGHSFLSNLHLRNGELVIHEKGFYYIYSQTYFRFQEEIKENTKNDKQMVQYIYKYTSYPDPILLMKSARNSCWSKDAEYGLYSIYQGGIFELKENDRIFVSVTNEHLIDMDHEASFFGAFAVSGAAAHITGTRGRSNTLSSPNSKNEKALGRKINSWESSRSGHSFLSNLHLRNGELVIHEKGFYYIYSQTYFRFQEEIKENTKNDKQMVQYIYKYTSYPDPILLMKSARNSCWSKDAEYGLYSIYQGGIFELKENDRIFVSVTNEHLIDMDHEASFFGAFAVSGAAAHITGTRGRSNTLSSPNSKNEKALGRKINSWESSRSGHSFLSNLHLRNGELVIHEKGFYYIYSQTYFRFQEEIKENTKNDKQMVQYIYKYTSYPDPILLMKSARNSCWSKDAEYGLYSIYQGGIFELKENDRIFVSVTNEHLIDMDHEASFFGAFAVS
modifications: glycosylated connecting peptide

Biological target: TRAIL-R2-Fc (human, UniProt O14763 56-210)
Experiment: ELISA

Compared with B1, B2 is 1.8-fold lower in EC50: 8.82 nM for the first, 4.82 nM for the second. The second is the more potent here.

B3 and B4 are within 1.5-fold of each other in EC50: 6.7 nM for the first, 5.69 nM for the second.

B5 was tested, and the EC50 was 17.5 nM.

Biological target: HT1080
Experiment: flow cytometry; HT1080 cells

Compared with B6, B7 is 4.3-fold higher in EC50: 0.6 nM for the first, 2.6 nM for the second.

Compared with B8, B9 is 2.3-fold lower in EC50: 4.3 nM for the first, 1.9 nM for the second. The second is the more potent here.
